Results reported in the supplement of paper PMC9112550, “Optimization of the antimicrobial peptide Bac7 by deep mutational scanning” (BMC Biology, 2022).

System: Escherichia coli TOP10
Assay: shrunken log2 fold change of peptide-encoding DNA abundance (4.5 h post-induction vs induction); higher = less antimicrobial activity (less host growth inhibition)
Conditions: time post-induction: 4.5 h; library: site-saturation at positions 5, 18, 19, 20
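Further: peptides expressed intracellularly from a pBAD plasmid library in pooled LB shake-flask culture, induced with 0.3% L-arabinose, DNA abundance read by NGS, three biological replicates, DESeq2 with apeglm shrinkage.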

Sequence	shrunken log2 fold change
RRIRTRPPRLPRPRPRPKRVPRP	-0.0636
RRIRIRPPRLPRPRPRPYPYPRP	0.0143
RRIRWRPPRLPRPRPRPQADPRP	-0.104
RRIRCRPPRLPRPRPRPGRNPRP	-0.0027
RRIRPRPPRLPRPRPRPIHQPRP	-0.115
RRIRPRPPRLPRPRPRPGGDPRP	0.496
RRIRRRPPRLPRPRPRPGCQPRP	-0.176
RRIRQRPPRLPRPRPRPLVDPRP	0.187
RRIRDRPPRLPRPRPRPIRRPRP	-0.00194
RRIRYRPPRLPRPRPRPQPVPRP	-0.258
RRIRERPPRLPRPRPRPTMDPRP	0.0537
RRIRIRPPRLPRPRPRPSCMPRP	-0.637
RRIRWRPPRLPRPRPRPRVDPRP	0.39
RRIRWRPPRLPRPRPRPLTVPRP	-0.0954
RRIRDRPPRLPRPRPRPSMFPRP	-0.144
RRIRPRPPRLPRPRPRPGEEPRP	0.359
RRIRRRPPRLPRPRPRPYVHPRP	-0.356
RRIRRRPPRLPRPRPRPAKYPRP	0.0401
RRIRFRPPRLPRPRPRPPKLPRP	0.0996
RRIRHRPPRLPRPRPRPVANPRP	-0.0206
RRIRNRPPRLPRPRPRPINGPRP	-0.262
RRIRPRPPRLPRPRPRPYLEPRP	-0.634
RRIRYRPPRLPRPRPRPTRAPRP	0.144
RRIRERPPRLPRPRPRPKIMPRP	-1.24
RRIRARPPRLPRPRPRPAIGPRP	0.714

Sequence	shrunken log2 fold change
RRIRERPPRLPRPRPRPTESPRP	5.08
RRIRMRPPRLPRPRPRPHAHPRP	-0.0269
RRIRDRPPRLPRPRPRPSFTPRP	-0.404
RRIRERPPRLPRPRPRPEKLPRP	-0.296
RRIRNRPPRLPRPRPRPEPMPRP	0.132
RRIRCRPPRLPRPRPRPCEMPRP	-0.151
RRIRHRPPRLPRPRPRPDDTPRP	-0.00674
RRIRDRPPRLPRPRPRPQNQPRP	-0.0268
RRIRLRPPRLPRPRPRPQWYPRP	-0.426
RRIRMRPPRLPRPRPRPPPSPRP	1.95
RRIRERPPRLPRPRPRPTKSPRP	-0.00427
RRIRLRPPRLPRPRPRPQWHPRP	-0.193
RRIRQRPPRLPRPRPRPRECPRP	0.147
RRIRFRPPRLPRPRPRPIKLPRP	-0.825
RRIRLRPPRLPRPRPRPMNPPRP	-0.0817
RRIRGRPPRLPRPRPRPCQNPRP	0.0697
RRIRDRPPRLPRPRPRPSPWPRP	0.188
RRIRMRPPRLPRPRPRPWNKPRP	-0.535
RRIRIRPPRLPRPRPRPTNPPRP	-0.454
RRIRHRPPRLPRPRPRPKPNPRP	0.225
RRIRIRPPRLPRPRPRPWGVPRP	-0.888
RRIRARPPRLPRPRPRPFVQPRP	-0.00645
RRIRMRPPRLPRPRPRPPHFPRP	1.03
RRIRGRPPRLPRPRPRPFSCPRP	-0.262
RRIRQRPPRLPRPRPRPMKIPRP	-0.0609

Sequence	shrunken log2 fold change
RRIRCRPPRLPRPRPRPLASPRP	0.139
RRIRERPPRLPRPRPRPLDCPRP	-0.161
RRIRCRPPRLPRPRPRPERKPRP	0.086
RRIRLRPPRLPRPRPRPIRLPRP	-0.3
RRIRYRPPRLPRPRPRPFAFPRP	-1.05
RRIRERPPRLPRPRPRPFMKPRP	-0.0971
RRIRERPPRLPRPRPRPPHCPRP	0.118
RRIRRRPPRLPRPRPRPWGDPRP	-0.0841
RRIRQRPPRLPRPRPRPVCSPRP	-0.21
RRIRIRPPRLPRPRPRPAYFPRP	-0.411
RRIRARPPRLPRPRPRPTKEPRP	0.0091
RRIRIRPPRLPRPRPRPPFAPRP	0.143
RRIRDRPPRLPRPRPRPGGHPRP	0.188
RRIRFRPPRLPRPRPRPFNQPRP	-0.161
RRIRLRPPRLPRPRPRPVGLPRP	0.144
RRIRHRPPRLPRPRPRPYTIPRP	-0.0416
RRIRHRPPRLPRPRPRPTFPPRP	0.145
RRIRFRPPRLPRPRPRPILSPRP	-0.101
RRIRPRPPRLPRPRPRPVVEPRP	-0.0705
RRIRWRPPRLPRPRPRPTHMPRP	0.206
RRIRRRPPRLPRPRPRPWAEPRP	2.36
RRIRLRPPRLPRPRPRPKDGPRP	-0.0687
RRIRIRPPRLPRPRPRPCGGPRP	0.188
RRIRYRPPRLPRPRPRPKQYPRP	-0.409
RRIRFRPPRLPRPRPRPLCIPRP	-0.571

Sequence	shrunken log2 fold change
RRIRDRPPRLPRPRPRPWQNPRP	-0.0811
RRIRFRPPRLPRPRPRPTINPRP	-0.508
RRIRRRPPRLPRPRPRPEKMPRP	0.296
RRIRGRPPRLPRPRPRPLSSPRP	0.598
RRIRGRPPRLPRPRPRPMQPPRP	1.77
RRIRNRPPRLPRPRPRPPQCPRP	-0.000221
RRIRLRPPRLPRPRPRPGTCPRP	0.0703
RRIRARPPRLPRPRPRPHWVPRP	0.0153
RRIRERPPRLPRPRPRPTFRPRP	-0.00937
RRIRPRPPRLPRPRPRPTSCPRP	0.193
RRIRFRPPRLPRPRPRPAVKPRP	-0.137
RRIRMRPPRLPRPRPRPKIYPRP	-0.107
RRIRDRPPRLPRPRPRPEPKPRP	1.4
RRIRRRPPRLPRPRPRPQIVPRP	-0.13
RRIRGRPPRLPRPRPRPFWIPRP	-0.432
RRIRWRPPRLPRPRPRPTPLPRP	0.557
RRIRFRPPRLPRPRPRPCMTPRP	0.162
RRIRMRPPRLPRPRPRPLKEPRP	0.701
RRIRVRPPRLPRPRPRPVRGPRP	0.767
RRIRWRPPRLPRPRPRPNVEPRP	-0.319
RRIRQRPPRLPRPRPRPVYIPRP	-0.214
RRIRWRPPRLPRPRPRPMLFPRP	-0.00681
RRIRQRPPRLPRPRPRPTTNPRP	-0.143
RRIRSRPPRLPRPRPRPSVMPRP	-0.391
RRIRNRPPRLPRPRPRPRRSPRP	0.428

Sequence	shrunken log2 fold change
RRIRRRPPRLPRPRPRPEGKPRP	0.0207
RRIRCRPPRLPRPRPRPRWKPRP	0.847
RRIRMRPPRLPRPRPRPQHQPRP	0.214
RRIRRRPPRLPRPRPRPNNQPRP	-0.0752
RRIRERPPRLPRPRPRPDCCPRP	-0.157
RRIRKRPPRLPRPRPRPFAFPRP	0.272
RRIRVRPPRLPRPRPRPVMGPRP	0.216
RRIRSRPPRLPRPRPRPAHWPRP	0.416
RRIRYRPPRLPRPRPRPPYCPRP	-0.287
RRIRWRPPRLPRPRPRPAGVPRP	0.66
RRIRRRPPRLPRPRPRPSLIPRP	-0.118
RRIRARPPRLPRPRPRPLAFPRP	0.703
RRIRTRPPRLPRPRPRPSYCPRP	0.0739
RRIRARPPRLPRPRPRPPFWPRP	0.914
RRIRSRPPRLPRPRPRPVMYPRP	-0.0786
RRIRMRPPRLPRPRPRPWSTPRP	-0.144
RRIRHRPPRLPRPRPRPFYLPRP	-0.915
RRIRQRPPRLPRPRPRPFCWPRP	0.42
RRIRMRPPRLPRPRPRPSWAPRP	0.203
RRIRERPPRLPRPRPRPTFSPRP	-0.216
RRIRNRPPRLPRPRPRPGLYPRP	-0.581
RRIRNRPPRLPRPRPRPFWHPRP	0.189
RRIRIRPPRLPRPRPRPSSCPRP	-0.17
RRIRVRPPRLPRPRPRPTHFPRP	-0.266
RRIRPRPPRLPRPRPRPNFMPRP	0.109

Sequence	shrunken log2 fold change
RRIRLRPPRLPRPRPRPFRMPRP	-0.0132
RRIRHRPPRLPRPRPRPMWWPRP	0.177
RRIRNRPPRLPRPRPRPRTAPRP	-0.0352
RRIRCRPPRLPRPRPRPQGNPRP	-0.695
RRIRHRPPRLPRPRPRPIGLPRP	0.0101
RRIRFRPPRLPRPRPRPIASPRP	-0.015
RRIRVRPPRLPRPRPRPWVMPRP	-0.212
RRIRCRPPRLPRPRPRPNPTPRP	0.211
RRIRNRPPRLPRPRPRPAKAPRP	0.113
RRIRCRPPRLPRPRPRPLSSPRP	-0.173
RRIRPRPPRLPRPRPRPEQPPRP	0.184
RRIRFRPPRLPRPRPRPWGCPRP	-0.225
RRIRERPPRLPRPRPRPYWTPRP	-0.0954
RRIRKRPPRLPRPRPRPCPMPRP	-0.15
RRIRVRPPRLPRPRPRPPFKPRP	0.163
RRIRMRPPRLPRPRPRPWSNPRP	-0.254
RRIRGRPPRLPRPRPRPLVCPRP	0.584
RRIRDRPPRLPRPRPRPSTNPRP	-0.16
RRIRSRPPRLPRPRPRPVETPRP	0.00492
RRIRNRPPRLPRPRPRPQEDPRP	0.00256
RRIRTRPPRLPRPRPRPQRAPRP	0.265
RRIRCRPPRLPRPRPRPVPDPRP	-0.0739
RRIRRRPPRLPRPRPRPICQPRP	0.133
RRIRTRPPRLPRPRPRPDYTPRP	-0.606
RRIRRRPPRLPRPRPRPLRMPRP	1.2
